Assay results taken from article PMC9009768 (PLoS Pathogens, 2022).

Target: T1, His-tagged PIAS1 (human, UniProt O75925 1-651)
T1 construct: also called His-PIAS1; purified PIAS1
Assay: pull-down
Conditions: both partners purified

T1 sequence (O75925 whole entry): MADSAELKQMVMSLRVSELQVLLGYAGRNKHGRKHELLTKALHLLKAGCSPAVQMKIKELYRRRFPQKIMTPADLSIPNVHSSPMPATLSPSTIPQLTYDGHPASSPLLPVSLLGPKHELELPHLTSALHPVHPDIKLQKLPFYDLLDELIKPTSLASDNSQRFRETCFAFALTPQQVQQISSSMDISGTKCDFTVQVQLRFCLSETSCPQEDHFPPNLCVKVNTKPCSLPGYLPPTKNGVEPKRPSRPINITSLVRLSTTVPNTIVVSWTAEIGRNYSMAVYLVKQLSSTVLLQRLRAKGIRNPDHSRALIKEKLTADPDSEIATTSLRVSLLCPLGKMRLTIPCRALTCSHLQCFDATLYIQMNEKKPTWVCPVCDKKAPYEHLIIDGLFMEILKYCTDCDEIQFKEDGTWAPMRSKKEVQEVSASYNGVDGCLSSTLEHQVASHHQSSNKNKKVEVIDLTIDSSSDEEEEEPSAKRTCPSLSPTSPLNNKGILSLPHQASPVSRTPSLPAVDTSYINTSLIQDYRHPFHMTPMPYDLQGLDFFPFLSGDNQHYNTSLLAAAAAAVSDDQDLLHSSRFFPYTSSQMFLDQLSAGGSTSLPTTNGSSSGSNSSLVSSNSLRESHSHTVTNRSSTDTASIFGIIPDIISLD

B1: GST-WSNNP (natural protein)
chain: MATKGTKRSYEQMETDGERQNATEIRASVGKMIGGIGRFYIQMCTELKLSDYEGRLIQNSLTIERMVLSAFDERRNKYLEEHPSAGKDPKKTGGPIYRRVDGKWMRELILYDKEEIRRIWRQANNGDDATAGLTHMMIWHSNLNDATYQRTRALVRTGMDPRMCSLMQGSTLPRRSGAAGAAVKGVGTMVMELIRMIKRGINDRNFWRGENGRRTRIAYERMCNILKGKFQTAAQRAMVDQVRESRNPGNAEFEDLIFLARSALILRGSVAHKSCLPACVYGPAVASGYDFEREGYSLVGIDPFRLLQNSQVYSLIRPNENPAHKSQLVWMACHSAAFEDLRVSSFIRGTKVVPRGKLSTRGVQIASNENMETMESSTLELRSRYWAIRTRSGGNTNQQRASSGQISIQPTFSVQRNLPFDRPTIMAAFTGNTEGRTSDMRTEIIRLMESARPEDVSFQGRGVFELSDEKAASPIVPSFDMSNEGSYFFGDNAEEYDN
binding result: binds
